# Experimental data published in US20250320304A1 (Janssen / Centocor, published 2025).
# T1: BCMA (BCMW37.DB.001) (UniProt Q02223 1-54, limits assumed)
# T1 construct: The SPR antigen itself is named only by its batch label
# T1 sequence (looked up): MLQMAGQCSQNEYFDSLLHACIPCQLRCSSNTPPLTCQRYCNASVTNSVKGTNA
# T2: BCMA on H929-Fluc-GFP cells (UniProt Q02223 1-184)
# T2 sequence (looked up): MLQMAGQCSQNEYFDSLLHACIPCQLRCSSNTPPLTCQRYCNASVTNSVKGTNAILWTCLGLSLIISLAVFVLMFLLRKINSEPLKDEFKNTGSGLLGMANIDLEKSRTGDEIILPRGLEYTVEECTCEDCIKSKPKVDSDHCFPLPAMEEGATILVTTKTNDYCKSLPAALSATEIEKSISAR
# T3: biotinylated-BCMA protein (UniProt Q02223 1-54, limits assumed, biotinylated (site not stated))
# T3 construct: also called recombinant BCMA antigen; recombinant biotinylated BCMA
# T3 sequence (looked up): T1 sequence (looked up)
# B1: BCMB1051 (bispecific antibody, human IgG1, kappa, L234A L235A)
# light: DIVMTQSQKFMSTTVGDRVSITCKASQNVGTAVAWYQQKPGQSPKLLIYSASNRYTGVPDRFTGTGSGTDFTLTIINVQSEDLADYFCQQYGSSPWTFGGGTKLEIKRTVAAPSVFIFPPSDEQLKSGTASVVCLLNNFYPREAKVQWKVDNALQSGNSQESVTEQDSKDSTYSLSSTLTLSKADYEKHKVYACEVTHQGLSSPVTKSFNRGEC
# heavy: QVQLQQSGAELVKPGASVKLSCKASGYTFTNNVMHWVRQKPGQGLEWIGYILPYNDGTKYNEKFKGKATLTSDKSSSTAYMELSSLTSEDSAVYYCARYDYDGYFDYWGQGTTLTVSSASTKGPSVFPLAPSSKSTSGGTAALGCLVKDYFPEPVTVSWNSGALTSGVHTFPAVLQSSGLYSLSSVVTVPSSSLGTQTYICNVNHKPSNTKVDKKVEPKSCDKTHTCPPCPAPEAAGGPSVFLFPPKPKDTLMISRTPEVTCVVVSVSHEDPEVKFNWYVDGVEVHNAKTKPREEQYNSTYRVVSVLTVLHQDWLNGKEYKCKVSNKALPAPIEKTISKAKGQPREPQVYTLPPSREEMTKNQVSLSCAVKGFYPSDIAVEWESNGQPENNYKTTPPVLDSDGSFFLVSKLTVDKSRWQQGNVFSCSVMHEALHNRFTQKSLSLSPGK
# chain: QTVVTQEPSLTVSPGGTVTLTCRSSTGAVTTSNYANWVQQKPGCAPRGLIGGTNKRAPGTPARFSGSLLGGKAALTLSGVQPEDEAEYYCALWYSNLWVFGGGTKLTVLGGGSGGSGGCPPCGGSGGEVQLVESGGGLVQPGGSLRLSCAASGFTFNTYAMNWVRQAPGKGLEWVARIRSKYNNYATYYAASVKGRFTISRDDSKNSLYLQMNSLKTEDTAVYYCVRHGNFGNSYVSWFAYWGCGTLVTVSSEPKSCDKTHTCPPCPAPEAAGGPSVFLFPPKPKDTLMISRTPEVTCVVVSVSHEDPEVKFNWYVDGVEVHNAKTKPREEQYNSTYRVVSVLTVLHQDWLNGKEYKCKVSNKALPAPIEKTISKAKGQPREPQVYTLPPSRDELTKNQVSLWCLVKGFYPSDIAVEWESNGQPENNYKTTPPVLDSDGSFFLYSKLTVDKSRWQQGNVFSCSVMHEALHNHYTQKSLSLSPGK
# notes: Murine anti-BCMA Fab × stapled anti-CD3 (CD3B219) scFv-Fc, knob-in-hole Fc; also called BCMB1051.001; BCMB749 × CD3B219 spfv
# B2: BCMB1056 (bispecific antibody, human IgG1, kappa, L234A L235A)
# light: B1 light
# heavy: B1 heavy
# chain: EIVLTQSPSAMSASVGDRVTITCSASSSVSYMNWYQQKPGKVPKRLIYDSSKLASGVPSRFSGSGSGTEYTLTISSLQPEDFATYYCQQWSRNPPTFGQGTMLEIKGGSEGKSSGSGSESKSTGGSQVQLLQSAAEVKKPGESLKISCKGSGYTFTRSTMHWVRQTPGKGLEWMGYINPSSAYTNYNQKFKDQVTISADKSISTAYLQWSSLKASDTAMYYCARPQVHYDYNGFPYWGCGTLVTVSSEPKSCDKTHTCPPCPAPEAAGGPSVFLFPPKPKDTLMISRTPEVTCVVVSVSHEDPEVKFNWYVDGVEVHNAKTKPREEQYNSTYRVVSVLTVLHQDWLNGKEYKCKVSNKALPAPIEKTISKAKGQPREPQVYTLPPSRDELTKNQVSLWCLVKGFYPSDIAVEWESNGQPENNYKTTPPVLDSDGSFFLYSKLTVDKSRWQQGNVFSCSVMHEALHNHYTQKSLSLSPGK
# notes: Murine anti-BCMA Fab × anti-CD3 scFv-Fc, knob-in-hole Fc; also called BCMB1056.001; BCMB749 × Cris7b scFv
# B3: TD01B48 (bispecific antibody)
# light: B1 light
# heavy: B1 heavy
# scFv-Fc: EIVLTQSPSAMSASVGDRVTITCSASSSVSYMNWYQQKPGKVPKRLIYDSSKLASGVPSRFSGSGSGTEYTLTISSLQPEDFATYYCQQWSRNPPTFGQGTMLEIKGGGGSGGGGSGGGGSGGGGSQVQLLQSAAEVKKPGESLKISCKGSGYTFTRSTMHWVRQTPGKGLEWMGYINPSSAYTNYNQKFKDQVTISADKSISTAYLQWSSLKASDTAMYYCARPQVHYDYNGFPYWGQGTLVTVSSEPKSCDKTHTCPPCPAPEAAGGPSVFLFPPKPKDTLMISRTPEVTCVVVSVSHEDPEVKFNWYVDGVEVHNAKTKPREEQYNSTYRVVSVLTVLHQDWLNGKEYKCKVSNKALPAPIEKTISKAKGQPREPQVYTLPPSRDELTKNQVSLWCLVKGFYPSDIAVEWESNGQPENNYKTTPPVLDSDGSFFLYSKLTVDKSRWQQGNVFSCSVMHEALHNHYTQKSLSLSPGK
# notes: also called BCMB749 × Cris7b scFv G4S; Cris7 scFv B48 G4S
# B4: TD01B49 (bispecific antibody, human IgG1, kappa, L234A L235A)
# light: B1 light
# heavy: B1 heavy
# chain: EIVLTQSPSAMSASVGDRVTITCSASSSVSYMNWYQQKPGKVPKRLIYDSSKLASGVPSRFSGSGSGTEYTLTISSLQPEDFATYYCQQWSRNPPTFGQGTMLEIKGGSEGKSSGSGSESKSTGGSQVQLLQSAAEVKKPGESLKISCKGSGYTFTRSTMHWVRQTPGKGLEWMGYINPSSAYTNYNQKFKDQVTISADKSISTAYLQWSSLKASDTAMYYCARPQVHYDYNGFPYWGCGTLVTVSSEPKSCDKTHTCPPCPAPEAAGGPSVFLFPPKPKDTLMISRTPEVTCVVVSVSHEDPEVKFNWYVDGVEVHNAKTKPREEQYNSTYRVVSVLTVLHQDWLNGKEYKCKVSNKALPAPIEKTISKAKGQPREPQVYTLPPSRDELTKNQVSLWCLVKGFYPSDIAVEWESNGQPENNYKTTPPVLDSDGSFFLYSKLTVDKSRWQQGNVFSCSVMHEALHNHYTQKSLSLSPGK
# notes: also called BCMB749 × Cris7b scFv Bird
# B5: TD01B46 (bispecific antibody, human IgG1, kappa, L234A L235A)
# light: B1 light
# heavy: B1 heavy
# chain: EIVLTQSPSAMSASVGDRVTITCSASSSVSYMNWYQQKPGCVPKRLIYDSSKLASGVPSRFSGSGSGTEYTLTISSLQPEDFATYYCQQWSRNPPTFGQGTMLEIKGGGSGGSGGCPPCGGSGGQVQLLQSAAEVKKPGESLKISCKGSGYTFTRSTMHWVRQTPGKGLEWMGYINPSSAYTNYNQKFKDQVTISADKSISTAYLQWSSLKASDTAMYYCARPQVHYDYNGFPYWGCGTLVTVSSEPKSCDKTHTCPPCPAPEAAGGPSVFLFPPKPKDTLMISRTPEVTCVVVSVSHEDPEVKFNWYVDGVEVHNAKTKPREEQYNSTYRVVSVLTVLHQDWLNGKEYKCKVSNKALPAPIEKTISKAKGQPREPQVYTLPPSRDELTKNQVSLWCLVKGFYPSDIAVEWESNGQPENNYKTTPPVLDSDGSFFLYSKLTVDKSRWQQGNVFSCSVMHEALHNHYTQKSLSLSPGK
# notes: Stapled bispecific from the large-scale batch; also called BCMB749 × Cris7b spFv
# Experiments:
# BCMA (BCMW37.DB.001) = target: T1, BCMA (BCMW37.DB.001); experiment: SPR, BCMA antigen BCMW37.DB.001
# [1] = target: CD3 on human donor Pan T cells (human); experiment: cell-based or functional assay
# Chain of CD3 on human donor Pan T cells (human) (chain, as listed by the source): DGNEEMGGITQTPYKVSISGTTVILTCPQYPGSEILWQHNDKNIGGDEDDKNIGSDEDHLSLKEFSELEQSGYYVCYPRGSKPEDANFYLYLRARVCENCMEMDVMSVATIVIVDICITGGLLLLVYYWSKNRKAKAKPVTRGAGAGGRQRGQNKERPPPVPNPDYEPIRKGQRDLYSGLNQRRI
# [2] = target: T2, BCMA on H929-Fluc-GFP cells; experiment: cell-based or functional assay
# CD3W220.001 = experiment: SPR, CD3 antigen CD3W220.001
# [3] = target: T4, Human CD3E-CD3D Heterodimer Protein (Acro Biosystems) (human, UniProt P07766 23-126; P04234 22-105); experiment: BLI (Octet), bispecific on anti-human Fc sensor, CD3 in solution, 2:1 heterogeneous ligand model, KD2
# T4 construct: also called recombinant CD3 antigen (human CD3 epsilon and CD3 delta heterodimer protein, Acro Biosystems); Recombinant CD3E/D heterodimer protein
# T4 sequence (P07766 23-126 limits assumed, chain 1 of 2): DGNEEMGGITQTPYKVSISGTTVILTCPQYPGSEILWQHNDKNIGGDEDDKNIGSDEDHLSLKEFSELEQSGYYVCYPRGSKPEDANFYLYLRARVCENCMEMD
# T4 sequence (P04234 22-105 limits assumed, chain 2 of 2): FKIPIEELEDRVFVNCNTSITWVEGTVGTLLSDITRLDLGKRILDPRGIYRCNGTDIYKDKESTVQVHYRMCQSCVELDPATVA
# Method: (§1) To evaluate CD3 binding, anti-human IgG Fc (AHC) capture biosensors (Sartorius) were loaded with 3 ug/mL bispecific sample of interest in PBS. After loading sensor tips were washed in 1×DPBS+0.02% Tween 20+1 mg/mL Bovine Serum Albumin (BSA) for blocking. […] Association was monitored for 1800 s and dissociation for 900 s, respectively. All measurements were performed at 30° C. with agitation at 1,200 rpm. Sensorgrams were referenced for buffer effects and then analyzed using the FORTEBIO Data Analysis HT Software (V. 12.0.1.55). Kinetic responses were baseline subtracted, aligned and globally fit using a 1:1 fitting model or 2:1 heterogeneous ligand binding model to obtain values for association (Kon), dissociation (Koff) rate constants and the equilibrium dissociation constants (KD).
# (§2) Recombinant CD3E/D heterodimer protein was used to assess binding of the scFv/spFv anti-CD3 arms.
# [4] = target: T4, Human CD3E-CD3D Heterodimer Protein …; experiment: BLI (Octet), bispecific on anti-human Fc sensor, CD3 in solution, 2:1 heterogeneous ligand model, kdis2
# Method: as §1, §2
# [5] = target: T4, Human CD3E-CD3D Heterodimer Protein …; experiment: BLI (Octet), bispecific on anti-human Fc sensor, CD3 in solution, 2:1 heterogeneous ligand model, ka2
# Method: as §1, §2
# [6] = target: T4, Human CD3E-CD3D Heterodimer Protein …; experiment: BLI (Octet), bispecific on anti-human Fc sensor, CD3 in solution, 2:1 heterogeneous ligand model, KD1
# Method: as §1, §2
# [7] = target: T3, biotinylated-BCMA protein; experiment: ELISA, chemiluminescence: biotinylated recombinant BCMA on streptavidin plates, detection with goat anti-human IgG F(ab')2 HRP
# Method: Bispecific antibodies were analyzed for binding to either recombinant biotinylated BCMA or recombinant biotinylated CD3 antigen (human CD3 epsilon and CD3 delta heterodimer protein, Acro Biosystems). ELISAs were carried out according to standard protocols and plates were washed three time with TBS containing 0.05% Tween 20 (TBS-T) between each incubation step. Ninety-six-well MAXISORP plates (Nunc) were coated with 1 ug/mL of Streptavidin, diluted in 1×dPBS for 18 hours at 4° C. All plates were coated with 20 nM of antigen of interest for 1 hour at room temperature and then blocked with 3% BSA in PBS-T (1×dPBs with 0.05% tween 20) for 1 hour at room temperature. After blocking, plates were incubated with serial dilution of purified bispecific samples in PBS-T for 1 h at RT, and were then incubated with goat anti-human IgG F(ab′2)2 HRP (Jackson ImmunoResearch) for 1 hour at room temperature. After washing, BM Chemilluminesence ELISA Substrate (POD) was added (Millipore) and plates were immediately read on an ENVISION plate reader (Perkin Elmer) using ultrasensitive illuminesence. […] PRISM, where curves were generated and analyzed with a nonlinear regression curve fit.
# [8] = target: T4, Human CD3E-CD3D Heterodimer Protein …; experiment: BLI (Octet), bispecific on anti-human Fc sensor, CD3 in solution, 2:1 heterogeneous ligand model, ka
# Method: as §1, §2
# [9] = target: T4, Human CD3E-CD3D Heterodimer Protein …; experiment: BLI (Octet), bispecific on anti-human Fc sensor, CD3 in solution, 2:1 heterogeneous ligand model, kdis
# Method: as §1, §2
# [10] = target: T3, biotinylated-BCMA protein; experiment: BLI (Octet), biotinylated BCMA on streptavidin sensor, bispecific in solution, 1:1 model
# Method: Binding of the Cris7b scFv and stapled spFv bispecific molecules to recombinant CD3 antigen (human CD3 epsilon and CD3 delta heterodimer protein, Acro Biosystems) and recombinant BCMA antigen were measured by biolayer interferometry (BLI) using an OCTET HTX instrument (Sartorius, formerly ForteBio). To evaluate BCMA binding, Streptavidin (SA) capture sensors (Sartorius) were loaded with biotinylated-BCMA protein to ˜1 nm signal in PBS. […] Association and dissociation times were 900 s, respectively. […] All measurements were performed at 30° C. with agitation at 1,200 rpm. Sensorgrams were referenced for buffer effects and then analyzed using the ForteBio Data Analysis HT Software (V. 12.0.1.55). Kinetic responses were baseline subtracted, aligned and globally fit using a 1:1 fitting model or 2:1 heterogeneous ligand binding model to obtain values for association (Kon), dissociation (Koff) rate constants and the equilibrium dissociation constants (KD).
Binder,Kd (BCMA (BCMW37.DB.001)) [nM],koff (BCMA (BCMW37.DB.001)) [s⁻¹],kon (BCMA (BCMW37.DB.001)) [M⁻¹ s⁻¹],"Bottom of fit, CD4/CD25+ T cell activation [1]","Bottom of fit, CD8/CD25+ T cell activation [1]","EC50 (nM), CD4/CD25+ T cell activation [1] [nM]","EC50 (nM), CD8/CD25+ T cell activation [1] [nM]","Top of fit (Cmax), CD4/CD25+ T cell activation [1]","Top of fit (Cmax), CD8/CD25+ T cell activation [1]","Bottom of fit, % Cytolysis [2] [%]","EC50 (nM), % Cytolysis [2] [nM]","Top of fit (Cmax), % Cytolysis [2] [%]",Kd (CD3W220.001) [nM],Kd [3] [nM],koff [4] [s⁻¹],kon [5] [M⁻¹ s⁻¹],Kd [6] [nM],EC50 (read off the curve) [7] [nM],kon [8] [M⁻¹ s⁻¹],koff [9] [s⁻¹],also measured
B1,2.47,0.0413,1.67e+07,8.67,1.67,0.087,0.144,84.9,74,16.7,0.0594,92.4,21.5,–,–,–,–,–,–,–,koff (CD3W220.001): 0.00171 s⁻¹; kon (CD3W220.001): 79500 M⁻¹ s⁻¹
B2,2.61,0.0389,1.49e+07,8.29,1.42,0.105,0.15,82.7,75.3,17.2,0.0758,92.7,951,–,–,–,–,–,–,–,koff (CD3W220.001): 0.237 s⁻¹; kon (CD3W220.001): 249000 M⁻¹ s⁻¹
B3,–,–,–,–,–,–,–,–,–,–,–,–,–,4.62,7.45e-05,16100,0.238,~2,147000,3.49e-05,–
B4,–,–,–,–,–,–,–,–,–,–,–,–,–,3.42,5.61e-05,16400,0.127,~2,160000,2.04e-05,Kd [10]: 4.02 nM; koff [10]: 0.00145 s⁻¹; kon [10]: 362000 M⁻¹ s⁻¹
B5,–,–,–,–,–,–,–,–,–,–,–,–,–,2.99,4.65e-05,15600,0.0222,~2,158000,3.49e-06,Kd [10]: 5.43 nM; koff [10]: 0.00142 s⁻¹; kon [10]: 261000 M⁻¹ s⁻¹
